Legend:
MS2 coat protein [1] = assay: apparent KD of MS2 coat protein, switch ON state; designed switch direction (-1 OFF switch, 1 ON switch): -1; higher = weaker reporter binding; settings: FMN input: 0 or 200 uM; Eterna round: R93 (includes R88 designs)
In short: (§1)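 On-chip transcription from Illumina sequencing clusters produced the designed RNA switches. These were titrated with SNAP-549-labelled MS2 coat protein (twofold steps, 0.7 or 1.5 nM to 3 µM) in 100 mM Tris-HCl pH 7.5, 80 mM KCl, 4 mM MgCl2, with or without constant ligand. The apparent KD given is the per-design median of normalised cluster binding-curve fits.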

MS2 coat protein [2] = assay: apparent KD of MS2 coat protein, switch OFF state (with FMN for OFF switches, without FMN for ON switches); designed switch direction (-1 OFF switch, 1 ON switch): -1; higher = weaker reporter binding; settings: FMN input: 0 or 200 uM; Eterna round: R93 (includes R88 designs)
In short: as §1

Sequence: AACAAGACAGGAUAUACAUGAGGAUCACCCAUGUCACAACAAAGCAGCGCAACACAAAGUAGAAGGGUCAUGGA [Ruby 11]
- apparent KD of MS2 coat protein (MS2 coat protein [1]): 81.2 nM
- apparent KD of MS2 coat protein (MS2 coat protein [2]): 82.6 nM

Sequence: CUCUUGUAAGGAUAUGACUACAUAAAAAAAAAAAAAUGUAGUCAGAAGGUACAUGAGGAUCACCCAUGUACUAA [Brourd - Exclusion 4 - Sub 2]
- apparent KD of MS2 coat protein (MS2 coat protein [1]): 20.8 nM
- apparent KD of MS2 coat protein (MS2 coat protein [2]): 26.2 nM

Sequence: AGUCAGAGAGGAUAUACAUGGAAAAAAAAAGUAAGAUCCCUACAUGAGGAUCACCCAUGUAGAAGGCUCUGACA [Ex2 Design 138: Sub-opt 2]
- apparent KD of MS2 coat protein (MS2 coat protein [1]): 27.5 nM
- apparent KD of MS2 coat protein (MS2 coat protein [2]): 13.2 nM

Sequence: AACAGGUUAGGAUAUAUGUAACAAAUAAAAAAAAUAUAAACAUAGAAGGAACAUGAGGAUCACCCAUGUUAACA [May 29]
- apparent KD of MS2 coat protein (MS2 coat protein [1]): 29.7 nM
- apparent KD of MS2 coat protein (MS2 coat protein [2]): 19.4 nM

Sequence: AAAAAACAUGAGGAUCACCCAUGUGAGGAUAUGCGAAAAAAAAAAUAAAAAAAAAAAAGUAGAAGGCACACCAA [Mat - Exclusion 1 - Eli mod - D55]
- apparent KD of MS2 coat protein (MS2 coat protein [1]): 41.9 nM
- apparent KD of MS2 coat protein (MS2 coat protein [2]): 44.1 nM

Sequence: AACUGACAUGAGGAUCACCCAUGUCAGGAUAUGCUUCAUAAAAACAAACAAAAAUGAUGCAGAAGGGACAUGGA [Design 30 :P Sub-opt 6]
- apparent KD of MS2 coat protein (MS2 coat protein [1]): 19.6 nM
- apparent KD of MS2 coat protein (MS2 coat protein [2]): 32.3 nM

Sequence: AAAAAGCGAGGAUAUACAUGAGGAUCACCCAUGUAAAAGGUCGCGGGAGGGAGGGAAGGUAGAAGGCGCAAAAA [Excls3-VI]
- apparent KD of MS2 coat protein (MS2 coat protein [1]): 15.4 nM
- apparent KD of MS2 coat protein (MS2 coat protein [2]): 14.1 nM

Sequence: AUAAACAGAGGAUAUACACAAAAUAAAGAAAAUAAAGAAACACAUGAGGAUCACCCAUGUAGAAGGCUGGAAAA
- apparent KD of MS2 coat protein (MS2 coat protein [1]): 23.3 nM
- apparent KD of MS2 coat protein (MS2 coat protein [2]): 22.7 nM

Sequence: AAGAAACAUGAGGAUCACCCAUGUGAGGAUAUCGAAAAGAAAAGAAAAGAAAGAAGAAUGAGAAGGCACAAAGG [Shed—]
- apparent KD of MS2 coat protein (MS2 coat protein [1]): 30.9 nM
- apparent KD of MS2 coat protein (MS2 coat protein [2]): 29.8 nM

Sequence: AGAAAGUGAGGAUAUACGAAACCAGCCUAAAUGGCUGGAAAGUAGAAGGCACAUGAGGAUCACCCAUGUAAAGA [Ex4 sub 1]
- apparent KD of MS2 coat protein (MS2 coat protein [1]): 32.3 nM
- apparent KD of MS2 coat protein (MS2 coat protein [2]): 43.4 nM

Sequence: GACACCGGAGGAUAUACAAGUCCUUACUGUCUAAAACCAUGACAUGAGGAUCACCCAUGUAGAAGGCCGAAAAG [Atbela]
- apparent KD of MS2 coat protein (MS2 coat protein [1]): 63.3 nM
- apparent KD of MS2 coat protein (MS2 coat protein [2]): 118 nM

Sequence: AGCUAGUCAGGAUAUACGCAAACGAACGAAGCAGAGAAGGGACAUGAGGAUCACCCAUGUAGAAGGGACUAGCA [Diamond 31]
- apparent KD of MS2 coat protein (MS2 coat protein [1]): 28.8 nM
- apparent KD of MS2 coat protein (MS2 coat protein [2]): 84.9 nM

Sequence: GAAAAGGUAGGAUAUACGAAAAAAAAGGGUAGAAAAAAAACACAUGAGGAUCACCCAUGUAGAAGGACCAAAAG [Mat - Exclusion 2 - Tesla mod - D30]
- apparent KD of MS2 coat protein (MS2 coat protein [1]): 26.6 nM
- apparent KD of MS2 coat protein (MS2 coat protein [2]): 602 nM

Sequence: GGCUAGUCAGGAUAUACGAACAUGUCAAAAGACGUGAAGGGACAUGAGGAUCACCCAUGUAGAAGGGACUAGCA [salish99-ex2-12]
- apparent KD of MS2 coat protein (MS2 coat protein [1]): 31.5 nM
- apparent KD of MS2 coat protein (MS2 coat protein [2]): 183 nM

Sequence: AAGAAGUGAGGAUAUCGAAGACUGUCGAAAAGACAGUCGAACGAGAAGGCACAUGAGGAUCACCCAUGUGGGAA [Marsurpial 65% 6]
- apparent KD of MS2 coat protein (MS2 coat protein [1]): 77.1 nM
- apparent KD of MS2 coat protein (MS2 coat protein [2]): 171 nM

Sequence: GAAGAACAUGAGGAUCACCCAUGUCAGGAUAUGAGCAAGGGAAUAAUAACUUGCGGAAUCAGAAGGGACAAGAA [Ex 1 May 51]
- apparent KD of MS2 coat protein (MS2 coat protein [1]): 31.7 nM
- apparent KD of MS2 coat protein (MS2 coat protein [2]): 43.6 nM

Sequence: AAAAAGGCAGGAUAUACGAGUCAAAGAAAAGACAAAAGGAAACAUGAGGAUCACCCAUGUAGAAGGGCCAAAAA [Fiskers exclusion D2 62% 6]
- apparent KD of MS2 coat protein (MS2 coat protein [1]): 28.2 nM
- apparent KD of MS2 coat protein (MS2 coat protein [2]): 16.7 nM

From the supplement of paper PMC9170038
